A short description of data set [1]: Reactivity with plastic-immobilized phospholipid. Conditions: read-out: EC50 of binding. How it is done: Phospholipids were dissolved in n-hexane to a concentration of 50 μg/ml. 100 μl of this solution was added to wells of 96-well microtiter plates. After evaporation of the solvent in air, the plates were blocked for 2 h with 10% fetal bovine serum diluted in DPBS containing 2 mM Ca^2+ (binding buffer).
9D2 antibody or annexin V were diluted in the binding buffer in the presence of 10% serum at an initial concentration of 6.7 nM. Serial two-fold dilutions were prepared in the plates (100 μl per well). The plates were then incubated for 2 h at room temperature. The plates were washed and the 9D2 and annexin V were detected by goat anti-rat IgM conjugated to HRP and rabbit anti-human annexin V followed by goat anti-rabbit IgG conjugated to HRP (all diluted 1:1000), respectively. Secondary reagents were detected by using chromogenic substrate OPD followed by reading plates at 490 nm using a microplate reader (Molecular Devices, Palo Alto, Calif.).
The specificity of the 9D2 antibody binding was validated by using control rat IgM of irrelevant specificity (Pharmingen, San Diego, Calif.). The specificity of annexin V binding to phospholipids, which is Ca^2+-dependent, was determined by diluting the reagent in the DPBS containing 5 mM EDTA. Additional negative controls consisted of washing the plates with the binding buffer containing 0.2% of a detergent Tween 20. This treatment extracts lipids, thus removing the phospholipid that was absorbed to plastic. Neither 9D2 antibody nor annexin V bound to detergent-washed plates.

The subject of data set [2] is MDA-MB-231 tumor vessels. The data set can be described thus: Double staining of orthotopic MDA-MB-231 tumors. The settings on record: biotinylated reagent i.v., one hour. Type of data set: in vivo, mouse. As to the method:
In further studies, mice bearing MDA-MB-231 tumors (0.3-0.7 cm^3 in volume) were injected intravenously with 50 μg of biotinylated 9D2, control IgM or annexin V (six mice per group). Biotinylated reagents were first incubated with streptavidin-Cy3 conjugate, washed in PBS, then incubated with MECA 32 antibody followed by FITC-tagged anti-rat IgG secondary antibody. Single images, taken with appropriate filters for Cy3 (red) and FITC (green) fluorescence respectively, were captured by digital camera and transferred to a computer. […] The same method was used to analyze tumors from mice injected with control rat IgM or saline. The percentage of vessels with localized 9D2 or annexin V was calculated as follows: mean number of yellow vessels per field divided by mean number of green (total) vessels multiplied by 100.
Double staining studies were also performed in which mice bearing orthotopic MDA-MB-231 breast tumors were injected intravenously with biotinylated 9D2 antibody, biotinylated control IgM or biotinylated annexin V. One hour later, the mice were exsanguinated, and their tumors were removed and frozen sections were cut. The tumor sections were then stained with Cy3-conjugated streptavidin to detect the biotinylated proteins and with FITC-conjugated MECA32 to detect vascular endothelium. […]

In data set [3] the test system is orthotopic MDA-MB-435 breast tumors. The data set can be described thus: 3G4 localization to tumor blood vessels in vivo. The arrangement: species or system mouse. The source says:
Frozen sections of tumor and normal tissues were stained for the presence of mouse immunoglobulin. SCID mice that had been confirmed as having no detectable circulatory immunoglobulin were used to avoid background staining. In these studies, sections were counterstained with anti-mouse CD31 to detect vascular endothelium and the images were merged. […] Coincident staining appeared yellow, unless dominated by a particularly intense green or red fluorescence in that region. The antigen specificity of vessel localization was confirmed by the lack of endothelial staining in tumors from mice injected with the isotype-matched control antibodies, BBG3.

Data set [4] relates to bEnd.3 cells. The data set can be described thus: Growth of bEnd.3 cells in vitro. The settings on record: 20 μg to 40 μg total IgG per well; 48 and 96 hours. Type of data set: cell-based, mouse. As to the method: 20% DMEM alone (control) or 20% DMEM containing the antibodies (20 μg to 40 μg total IgG per well) was added 4 hours after seeding. Each clone was tested on two separate plates in triplicates. Cells were detached 48 and 96 hours later, the cell count was determined in each well and the average cell number per treatment was calculated.

A short description of data set [5]: 3G4 toxicity studies in mice. Type of data set: in vivo, mouse. The source says: The following parameters were specifically examined.
Mice retain normal physical signs, bone marrow cellularity, white blood cell counts, histology and coagulation functions.

For data set [6], the system named is dendritic cells. The data set can be described thus: DC uptake of apoptotic tumor cells. Type of data set: cell-based. The settings on record: Fc(γ)R mediated internalization. The source says:
The inventors therefore envision using the anti-PS antibodies of the present invention to enhance both […] and cellular anti-tumor immunity, and boost the efficacy of ATC based DC tumor vaccines.

The subject of data set [7] is Pichinde virus. Type of data set: cell-based.
Data set [8] relates to HUVECs.
Data set [9] has as its system human CMV AD169. Put plainly: CMV-GFP spread by fluorescent microscopy.
Data set [10] deals with RSV long strain. The data set can be described thus: RSV plaque assay after antibody treatment. The settings on record: MOI of 1.

From patent US20160311886A1, “Constructs Binding to Phosphatidylserine and Their Use in Disease Treatment and Imaging” (Board of Regents, The University of Texas System, priority 2005, published 2016) come the findings set out here.

Where two headings read alike, the source gives them in different places.

Broadly, the EC50 is the concentration giving half of the maximal effect. As to “Annexin V: High affinity PS binding ligand; natural ligand binding anionic phospholipids and PE”, the EC50 in [1] (CL) was 0.13 nM; in data set [1] (PA), 0.1 nM; in [1] (PC) it was above 8 nM; in [1] (PE) it was 0.1 nM; in [1] (PG), 0.25 nM; in data set [1] (PI), 0.05 nM. Also, the concentration for a half-maximal effect (EC50) in data set [1] (PS) is 0.1 nM; in data set [1] (SM), above 8 nM. For the same molecule, the “MECA 32 positive vessels that bound the reagent” value in data set [2] is listed as “About 40%”.

B1: 3G4: Mouse IgG3 kappa monoclonal antibody to PS and anionic phospholipids; binding mediated by β2-glycoprotein I (antibody, listed as Mus musculus)
VH: MGWTWIFILILSVTTGVHSEVQLQQSGPELEKPGASVKLSCKASGYSFTGYNMNWVKQSHGKSLEWIGHIDPYYGDTSYNQKFRGKATLTVDKSSSTAYMQLKSLTSEDSAVYYCVKGGYYGHWYFDVWGAGTTVTVSSATTTAPSVYPLVP
VL: MDMRAPAQILGFLLLLFPGTRCDIQMTQSPSSLSASLGERVSLTCRASQDIGSSLNWLQQGPDGTIKRLIYATSSLDSGVPKRFSGSRSGSDYSLTISSLESEDFVDYYCLQYVSSPPTFGAGTKLELKRADAAPTVFIFGRIP
For the molecule B1, the “tumor blood vessels with localized antibody” value in data set [3] (after i.p. or i.v. injection) came to 40±10%. The “time to maximal localization to tumor vessels” value in data set [3] (i.p. injection) is at most 6 h. Besides, the “time to maximal staining of tumor vessels” value in data set [3] (i.v. injection) is at most 1 h. Further, the “inhibition of growth of bEnd.3 cells” value in data set [4] is “particularly effective”. The “blood coagulation parameters (PT, APTT, D-dimer)” value in [5] (100 μg IP three times a week) is given as “normal”. Moreover, the toxicity result in data set [5] (1 mg purified antibody intraperitoneally) is reported as “no toxicity was observed”. For the same molecule, the “physical signs of toxicity” value is recorded as “No physical signs of toxicity have been observed” in data set [5] (BALB/c mice, 100 μg IP three times a week for 2 to 4 weeks) and “showed no physical signs of toxicity” in data set [5] (single i.p. 2 mg, or 0.5 mg daily for 14 days). Also, the “Bone marrow cellularity and composition” value in data set [5] (six injections, 100 μg) is listed as “normal”. Besides, the “enhancement of DC uptake of apoptotic tumor cells” value in [6] is reported as 300%. Besides, in data set [7], the infected cells entry is on record as “about one in about a hundred cells”. Moreover, the “activation of endothelial cells” value in data set [8] is listed as “does not activate resting HUVECs or HUVECs pre-activated with low concentrations of LPS”. In data set [9] (100 μg/ml and 50 μg/ml), the cell-to-cell spread entry is “complete inhibition of cell-to-cell spread”. The “entry of the virus into the cells” value in [9] (day 3, 50 and 100 μg/ml) is “does not appear to significantly inhibit the entry of the virus”. Moreover, the “viral spread in monolayer” value in data set [9] (day 9, 100 μg/ml and 50 μg/ml, control wells approximately 80% infected) was “restricted to the original singly-infected cell”. In addition, the “decrease in viral titer” value in data set [10] worked out at 2 log10.
